The results in this text go back to IntAct's records for PubMed 20561531.

First the molecules themselves.
B1: PRKC apoptosis WT1 regulator protein (Homo sapiens), Q96IZ0 (parent)
chain: MATGGYRTSSGLGGSTTDFLEEWKAKREKMRAKQNPPGPAPPGGGSSDAAGKPPAGALGTPAAAAANELNNNLPGGAPAAPAVPGPGGVNCAVGSAMLTRAAPGPRRSEDEPPAASASAAPPPQRDEEEPDGVPEKGKSSGPSARKGKGQIEKRKLREKRRSTGVVNIPAAECLDEYEDDEAGQKERKREDAITQQNTIQNEAVNLLDPGSSYLLQEPPRTVSGRYKSTTSVSEEDVSSRYSRTDRSGFPRYNRDANVSGTLVSSSTLEKKIEDLEKEVVRERQENLRLVRLMQDKEEMIGKLKEEIDLLNRDLDDIEDENEQLKQENKTLLKVVGQLTR
B2: PRKC apoptosis WT1 regulator protein (Homo sapiens), Q96IZ0 (parent)
chain: B1 chain
partner: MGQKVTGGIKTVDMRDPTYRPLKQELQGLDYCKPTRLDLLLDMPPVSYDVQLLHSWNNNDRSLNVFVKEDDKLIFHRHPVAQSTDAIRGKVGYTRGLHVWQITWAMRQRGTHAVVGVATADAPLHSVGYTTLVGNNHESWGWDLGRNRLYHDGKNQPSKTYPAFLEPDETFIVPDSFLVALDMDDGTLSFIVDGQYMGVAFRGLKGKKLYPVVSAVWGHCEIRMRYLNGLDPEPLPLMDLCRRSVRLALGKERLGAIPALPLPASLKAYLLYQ

In the first test the parent is B1. As to conditions: with spsb2_mouse Spsb2, O88838.
Sequence of spsb2_mouse Spsb2, O88838 (O88838 whole entry): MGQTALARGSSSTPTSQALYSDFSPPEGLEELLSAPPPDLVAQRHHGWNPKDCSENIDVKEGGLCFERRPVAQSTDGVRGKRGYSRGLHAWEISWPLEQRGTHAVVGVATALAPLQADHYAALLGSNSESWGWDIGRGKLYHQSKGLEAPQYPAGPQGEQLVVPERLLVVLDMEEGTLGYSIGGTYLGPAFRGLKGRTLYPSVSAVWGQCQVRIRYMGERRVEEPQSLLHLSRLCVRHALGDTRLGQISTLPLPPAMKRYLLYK
In the case of MATGGYRTSSGLGGSTTDFLEEWKAKREKMRAKQNPPGPAPPGGGSSDAAGKPPAGALGTPAAAAANEINNNLPGGAPAAPAVPGPGGVNCAVGSAMLTRAAPGPRRSEDEPPAASASAAPPPQRDEEEPDGVPEKGKSSGPSARKGKGQIEKRKLREKRRSTGVVNIPAAECLDEYEDDEAGQKERKREDAITQQNTIQNEAVNLLDPGSSYLLQEPPRTVSGRYKSTTSVSEEDVSSRYSRTDRSGFPRYNRDANVSGTLVSSSTLEKKIEDLEKEVVRERQENLRLVRLMQDKEEMIGKLKEEIDLLNRDLDDIEDENEQLKQENKTLLKVVGQLTR [L69I], the “effect of a mutation on the interaction” value was “increasing interaction”.

On to MATGGYRTSSGLGGSTTDFLEEWKAKREKMRAKQNPPGPAPPGGGSSDAAGKPPAGALGTPAAAAANELANNLPGGAPAAPAVPGPGGVNCAVGSAMLTRAAPGPRRSEDEPPAASASAAPPPQRDEEEPDGVPEKGKSSGPSARKGKGQIEKRKLREKRRSTGVVNIPAAECLDEYEDDEAGQKERKREDAITQQNTIQNEAVNLLDPGSSYLLQEPPRTVSGRYKSTTSVSEEDVSSRYSRTDRSGFPRYNRDANVSGTLVSSSTLEKKIEDLEKEVVRERQENLRLVRLMQDKEEMIGKLKEEIDLLNRDLDDIEDENEQLKQENKTLLKVVGQLTR [N70A], for which the “effect of a mutation on the interaction” value is “disrupting interaction”.

In the case of MATGGYRTSSGLGGSTTDFLEEWKAKREKMRAKQNPPGPAPPGGGSSDAAGKPPAGALGTPAAAAANDINNNLPGGAPAAPAVPGPGGVNCAVGSAMLTRAAPGPRRSEDEPPAASASAAPPPQRDEEEPDGVPEKGKSSGPSARKGKGQIEKRKLREKRRSTGVVNIPAAECLDEYEDDEAGQKERKREDAITQQNTIQNEAVNLLDPGSSYLLQEPPRTVSGRYKSTTSVSEEDVSSRYSRTDRSGFPRYNRDANVSGTLVSSSTLEKKIEDLEKEVVRERQENLRLVRLMQDKEEMIGKLKEEIDLLNRDLDDIEDENEQLKQENKTLLKVVGQLTR [E68D;L69I], the “effect of a mutation on the interaction” value is “increasing interaction”.

The variants in the next test derive from B1. As to conditions: with spsb4_mouse Spsb4, Q8R5B6.
Sequence of spsb4_mouse Spsb4, Q8R5B6 (Q8R5B6 whole entry): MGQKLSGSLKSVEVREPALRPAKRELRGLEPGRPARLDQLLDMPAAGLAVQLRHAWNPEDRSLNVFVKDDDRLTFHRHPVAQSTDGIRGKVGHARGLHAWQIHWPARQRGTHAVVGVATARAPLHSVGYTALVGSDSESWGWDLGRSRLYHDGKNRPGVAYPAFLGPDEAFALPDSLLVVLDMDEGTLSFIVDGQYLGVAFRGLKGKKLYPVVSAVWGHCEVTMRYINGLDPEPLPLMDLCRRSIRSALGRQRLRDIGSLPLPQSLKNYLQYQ
Take MATGGYRTSSGLGGSTTDFLEEWKAKREKMRAKQNPPGPAPPGGGSSDAAGKPPAGALGTPAAAAANEINNNLPGGAPAAPAVPGPGGVNCAVGSAMLTRAAPGPRRSEDEPPAASASAAPPPQRDEEEPDGVPEKGKSSGPSARKGKGQIEKRKLREKRRSTGVVNIPAAECLDEYEDDEAGQKERKREDAITQQNTIQNEAVNLLDPGSSYLLQEPPRTVSGRYKSTTSVSEEDVSSRYSRTDRSGFPRYNRDANVSGTLVSSSTLEKKIEDLEKEVVRERQENLRLVRLMQDKEEMIGKLKEEIDLLNRDLDDIEDENEQLKQENKTLLKVVGQLTR [L69I]: the “effect of a mutation on the interaction” value is reported as “increasing interaction”.

With MATGGYRTSSGLGGSTTDFLEEWKAKREKMRAKQNPPGPAPPGGGSSDAAGKPPAGALGTPAAAAANELANNLPGGAPAAPAVPGPGGVNCAVGSAMLTRAAPGPRRSEDEPPAASASAAPPPQRDEEEPDGVPEKGKSSGPSARKGKGQIEKRKLREKRRSTGVVNIPAAECLDEYEDDEAGQKERKREDAITQQNTIQNEAVNLLDPGSSYLLQEPPRTVSGRYKSTTSVSEEDVSSRYSRTDRSGFPRYNRDANVSGTLVSSSTLEKKIEDLEKEVVRERQENLRLVRLMQDKEEMIGKLKEEIDLLNRDLDDIEDENEQLKQENKTLLKVVGQLTR [N70A], the “effect of a mutation on the interaction” value is “disrupting interaction”.

Turning to MATGGYRTSSGLGGSTTDFLEEWKAKREKMRAKQNPPGPAPPGGGSSDAAGKPPAGALGTPAAAAANDINNNLPGGAPAAPAVPGPGGVNCAVGSAMLTRAAPGPRRSEDEPPAASASAAPPPQRDEEEPDGVPEKGKSSGPSARKGKGQIEKRKLREKRRSTGVVNIPAAECLDEYEDDEAGQKERKREDAITQQNTIQNEAVNLLDPGSSYLLQEPPRTVSGRYKSTTSVSEEDVSSRYSRTDRSGFPRYNRDANVSGTLVSSSTLEKKIEDLEKEVVRERQENLRLVRLMQDKEEMIGKLKEEIDLLNRDLDDIEDENEQLKQENKTLLKVVGQLTR [E68D;L69I], the “effect of a mutation on the interaction” value was “increasing interaction”.

Another test covers variants of B2. As to conditions: with spsb1_mouse Spsb1, Q9D5L7.
On to MATGGYRTSSGLGGSTTDFLEEWKAKREKMRAKQNPPGPAPPGGGSSDAAGKPPAGALGTPAAAAANELNANLPGGAPAAPAVPGPGGVNCAVGSAMLTRAAPGPRRSEDEPPAASASAAPPPQRDEEEPDGVPEKGKSSGPSARKGKGQIEKRKLREKRRSTGVVNIPAAECLDEYEDDEAGQKERKREDAITQQNTIQNEAVNLLDPGSSYLLQEPPRTVSGRYKSTTSVSEEDVSSRYSRTDRSGFPRYNRDANVSGTLVSSSTLEKKIEDLEKEVVRERQENLRLVRLMQDKEEMIGKLKEEIDLLNRDLDDIEDENEQLKQENKTLLKVVGQLTR [N71A], for which the “effect of a mutation on the interaction” value is “disrupting interaction”.

For the variant MATGGYRTSSGLGGSTTDFLEEWKAKREKMRAKQNPPGPAPPGGGSSDAAGKPPAGALGTPAAAAANELANNLPGGAPAAPAVPGPGGVNCAVGSAMLTRAAPGPRRSEDEPPAASASAAPPPQRDEEEPDGVPEKGKSSGPSARKGKGQIEKRKLREKRRSTGVVNIPAAECLDEYEDDEAGQKERKREDAITQQNTIQNEAVNLLDPGSSYLLQEPPRTVSGRYKSTTSVSEEDVSSRYSRTDRSGFPRYNRDANVSGTLVSSSTLEKKIEDLEKEVVRERQENLRLVRLMQDKEEMIGKLKEEIDLLNRDLDDIEDENEQLKQENKTLLKVVGQLTR [N70A], the “effect of a mutation on the interaction” value is on record as “disrupting interaction”.

In the case of MATGGYRTSSGLGGSTTDFLEEWKAKREKMRAKQNPPGPAPPGGGSSDAAGKPPAGALGTPAAAAANDINNNLPGGAPAAPAVPGPGGVNCAVGSAMLTRAAPGPRRSEDEPPAASASAAPPPQRDEEEPDGVPEKGKSSGPSARKGKGQIEKRKLREKRRSTGVVNIPAAECLDEYEDDEAGQKERKREDAITQQNTIQNEAVNLLDPGSSYLLQEPPRTVSGRYKSTTSVSEEDVSSRYSRTDRSGFPRYNRDANVSGTLVSSSTLEKKIEDLEKEVVRERQENLRLVRLMQDKEEMIGKLKEEIDLLNRDLDDIEDENEQLKQENKTLLKVVGQLTR [E68D;L69I], the “effect of a mutation on the interaction” value is listed as “increasing interaction”.
